According to PMC7954794, “Protein context shapes the specificity of SH3 domain-mediated interactions in vivo” (Nature Communications, 2021):

B1: S. cerevisiae Abp1 (full length; SH3 domain 535-592 mutated) / Hua2 (parent)
chain 1: MALEPIDYTTHSREIDAEYLKIVRGSDPDTTWLIISPNAKKEYEPESTGSSFHDFLQLFDETKVQYGLARVSPPGSDVEKIIIIGWCPDSAPLKTRASFAANFAAVANNLFKGYHVQVTARDEDDLDENELLMKISNAAGARYSIQTSSKQQGKASTPPVKKSFTPSKSPAPVSKKEPVKTPSPAPAAKISSRVNDNNDDDDWNEPELKERDFDQAPLKPNQSSYKPIGKIDLQKVIAEEKAKEDPRLVQKPTAAGSKIDPSSDIANLKNESKLKRDSEFNSFLGTTKPPSMTESSLKNDDDKVIKGFRNEKSPAQLWAERKAKQNSGNAETKAEAPKPEVPEDEPEGEPDVKDLKSKFEGLAASEKEEEEMENKFAPPPKKSEPTIISPKPFSKPQEPVKAEEAEQPKTDYKKIGNPLPGMHIEADNEEEPEENDDDWDDDEDEAAQPPLPSRNVASGAPVQKEEPEQEEIAPSLPSRNSIPAPKQEEAPEQAPEEEIEEEAEEAAPQLPSRSSAAPPPPPRRATPEKKPKENPWATAEYDYDAAEDNELTFVENDKIINIEFVDDDWWLGELEKDGSKGLFPSNYVSLGN
chain 2: MQQTKFGKMYLDHDSVVEYSEDEIVEADRITLGYKKRLSMIENQMRHLLEDFSLDVQQIEPILADLQKYYDAFLQLLQKRNKSLQCKRSTHQPVPSPMNSQTSTNAKVNLSGKLMKFQLNSVQKFDEENILRILQNKIEFEHYFQIDKGKKQKVLLLAVYQCLNGPTRLHKVLNIEGIIHNNSIRTILGKQVSSSKWTVFLYDVKLVLLAHRQDVPNLETSKMIVRYGDLFPCALYFKDHTAY

Variants of: B1
Experiment: DHFR protein-fragment complementation in yeast (Abp1-DHFR F[1,2] x partner-DHFR F[3]), deep mutational scanning, second methotrexate selection vs reference
Settings: with Hua2; S. cerevisiae, DHFR-PCA selection in liquid with methotrexate at 30 C, two 72 h selections (the score uses the second); reference = the pre-selection culture; not an affinity; scale: DMS score: mean over two replicates of log2(f_test/f_ref + 0.5)/ln 2, minus the synonymous-codon median

Variant	screen value
chain 1 E573G	-2.56
chain 1 E573W	-2.52
chain 1 E573K	-1.32
chain 1 E573D	-1.16
chain 1 E573A	-1.17
chain 1 W569V	-2.92
chain 1 W569G	-2.06
chain 1 W569C	-1.49
chain 1 P584L	-2.52
chain 1 P584A	-2.85
chain 1 P584H	-2.12
chain 1 P584S	-2.56
chain 1 A537D	-2.14
chain 1 A537S	-2.6
chain 1 V565F	-1.5
chain 1 V565E	-2.08
chain 1 V565G	-1.37
chain 1 N561C	-2.22
chain 1 N561Y	-2.5
chain 1 N561T	-1.97
chain 1 N561A	-2.29
chain 1 N561S	-2.28
chain 1 N561G	-1.4
chain 1 N561R	-2.12

Variant	screen value
chain 1 D548Y	-1.22
chain 1 V588F	-2.87
chain 1 V588E	-2.04
chain 1 V588T	-2.13
chain 1 V588W	-2.8
chain 1 V588G	-2.23
chain 1 T552Q	-1.13
chain 1 T552F	-2.87
chain 1 T552Y	-2.8
chain 1 I560G	-2.38
chain 1 D568C	-2.91
chain 1 L551V	-1.51
chain 1 L551E	-2.9
chain 1 L551F	-2.93
chain 1 L551P	-1.38
chain 1 L590P	-1.72
chain 1 L590S	-2.63
chain 1 L590Q	-2.62
chain 1 L590T	-2.55
chain 1 L590H	-2.44
chain 1 L590E	-2.84
chain 1 A546P	-2.02
chain 1 L574H	-1.08
chain 1 L574Q	-1.79

Variant	screen value
chain 1 L574G	-2.91
chain 1 L574A	-1.53
chain 1 L574S	-1.23
chain 1 I559S	-1.61
chain 1 I559F	-1.21
chain 1 I559N	-2.48
chain 1 G581S	-2.77
chain 1 G581D	-2.22
chain 1 G581A	-2.84
chain 1 G581C	-2.66
chain 1 G581V	-2.59
chain 1 F583S	-2.62
chain 1 F583Y	-1.68
chain 1 F583L	-1.78
chain 1 F583V	-2.31
chain 1 F583I	-1.72
chain 1 F564V	-2.3
chain 1 F564N	-2.93
chain 1 F564G	-2.97
chain 1 F564L	-1.7
chain 1 E550V	-2.76
chain 1 E550K	-2.04
chain 1 E550G	-2.84
chain 1 Y587Q	-2.81

Variant	screen value
chain 1 Y587D	-2.16
chain 1 Y587W	-1.66
chain 1 Y587N	-1.43
chain 1 E563L	-1.4
chain 1 E563G	-1.92
chain 1 E563M	-1.5
chain 1 D557V	-2.87
chain 1 D557Y	-2.77
chain 1 D557S	-2.41
chain 1 D566V	-2.75
chain 1 E575T	-1.44
chain 1 E575F	-1.16
chain 1 E575R	-1.6
chain 1 E575N	-1.15
chain 1 N586W	-2.53
chain 1 E547C	-2.2
chain 1 E547I	-2.45
chain 1 E547F	-1.69
chain 1 E547V	-2.1
chain 1 E547G	-2.81
chain 1 T538P	-1.88
chain 1 T538W	-1.19
chain 1 L582P	-2.04
chain 1 L582H	-1.2

Variant	screen value
chain 1 L582V	-2
chain 1 L582C	-2.82
chain 1 W570R	-2.58
chain 1 W570Y	-2.31
chain 1 W570N	-2.68
chain 1 W570S	-2.8
chain 1 W570C	-1.57
chain 1 W570G	-2.48
chain 1 K580G	-2.39
chain 1 K580Y	-1.88
chain 1 K580D	-2.63
chain 1 E540F	-2.97
chain 1 S585E	-2.07
chain 1 S585I	-1.59
chain 1 K576D	-1.75
chain 1 K576V	-1.06
chain 1 K576L	-1.83
chain 1 K576M	-1.51
chain 1 K576F	-2.16
chain 1 W536R	-1.3
chain 1 W536I	-1.58
chain 1 W536D	-1.97
chain 1 W536N	-1.23
chain 1 S579A	-1.48

Variant	screen value
chain 1 S579G	-1.41
chain 1 S579F	-2.55
chain 1 S579D	-1.27
chain 1 S579W	-2.9
chain 1 D577N	-2.24
chain 1 D577Q	-2.41
chain 1 D577K	-2.12
chain 1 D577L	-2.96
chain 1 D577H	-2.21
chain 1 D577W	-2.9
chain 1 D577A	-1.59
chain 1 D577V	-2.26
chain 1 D577R	-2.77
chain 1 F553Y	-2.41
chain 1 F553S	-2.83
chain 1 F553V	-1.32
chain 1 K558N	-1.29
chain 1 K558G	-2.62
chain 1 K558D	-2.59
chain 1 A545M	-1.83
chain 1 A545L	-2.7
chain 1 A545W	-2.91
chain 1 A545H	-1.96
chain 1 A545V	-1.96

Variant	screen value
chain 1 A545P	-1.42
chain 1 A545F	-2.84
chain 1 S589P	-2.38
chain 1 S589Y	-1.12
chain 1 A539S	-1.72
chain 1 A539P	-2.72
chain 1 I562W	-2.85
chain 1 I562T	-2.61
chain 1 I562M	-1.57
chain 1 Y541I	-2.42
chain 1 Y541G	-1.86
chain 1 D542Y	-1.41
chain 1 D542I	-2.41
chain 1 D542V	-1.37
chain 1 D542W	-1.61
chain 1 Y543C	-2.15
chain 1 Y543K	-2.96
chain 1 Y543S	-2.67
chain 1 G578V	-2.83
chain 1 G578E	-1.21
chain 1 G578T	-2.3
chain 1 G578L	-2.28
chain 1 G572V	-2.77
